# Assay results taken from PMC11790958 (The EMBO Journal, 2024).
# No end group written: not given here. *: point of attachment. 5FAM = O=C1OC2(c3ccc(O)cc3Oc3cc(O)ccc32)c2ccc(C(=O)*)cc21; 5‑FAM = 5-carboxyfluorescein label
# B1: 5-FAM-KIF4A WT(1206-1228) peptide (peptide)
# peptide: 5FAM-PGKKKKRALASNTSFFSGCSPIE
# notes: KIF4A, chromokinesin, residues 1206-1228 (C-terminal tail SLiM); also called 5-FAM-KIF4A(1206-1228); 5-FAM labelled KIF4A; source: synthetic peptide; bought: Genscript
# B2: 5-FAM Lrs4(317-337) peptide (peptide)
# peptide: {5‑FAM}-NKKRKLTKQRIATLPNSDEEL
# notes: also called 5-FAM Lrs4(317-339); Lrs4 peptide; source: synthetic peptide; bought: Genscript
# B3: 5-FAM Sgo1(503-523) peptide (peptide)
# peptide: TRTKKLFKNAIVNNLSDENST
# modifications: also: 5-FAM label, end not given here
# notes: Sgo1, yeast shugoshin, residues 503-523, SLiM; also called Sgo peptide; source: synthetic peptide; bought: Genscript
# B4: 5-FAM NCAPD2-C(1376-1398) peptide (peptide)
# peptide: 5FAM-SAEMTEDETPKKTTPILRASARR
# notes: NCAPD2, human condensin I HAWK subunit, residues 1376-1398 (C-terminal SLiM); also called 5-FAM-NCAPD2(1376-1398); F-NCAPD2-C(1376-1398); source: synthetic peptide; bought: Genscript
# Legend:
# [1] = molecular target: T1, human condensin I pentamer, wild type (human, UniProt O95347 1-1197; Q9NTJ3 1-1288; Q15003 1-741; Q15021 1-1401; Q9BPX3 1-1015); experiment: fluorescence polarisation; 100 nM 5-FAM labelled peptide, protein or complex titrated; 20 mM HEPES pH 8, 150 mM KCl, 2.5 mM MgCl, 5% glycerol, 1 mM DTT; room temperature, 15 min; settings: both partners purified
# T1 construct: SMC2, human condensin I subunit; SMC4, human condensin I subunit; NCAPH, human condensin I kleisin subunit; NCAPD2, human condensin I HAWK subunit; NCAPG, human condensin I HAWK subunit; The complex carries a strep tag; also called CI; CIWT; source: Sf9 insect cells (baculovirus), co-expressed, purified (StrepTrap, heparin, SEC); copies: + + + +
# yeast condensin pentamer = molecular target: T2, yeast condensin pentamer (S. cerevisiae, UniProt P38989 1-1170; Q12267 1-1418; P38170 1-754; Q06156 1-1176; Q06680 1-1035); experiment: as above; settings: both partners purified
# T2 construct: Smc2, S. cerevisiae condensin subunit; Smc4, S. cerevisiae condensin subunit; Brn1, S. cerevisiae condensin kleisin subunit; Ycs4, S. cerevisiae condensin HAWK subunit; Ycg1, S. cerevisiae condensin HAWK subunit; also called ScCondensin Pentamer; pentameric yeast condensin; source: purified as described previously (Martínez-García et al, 2022; Lee et al, 2020); copies: + + + +
Binder,Kd (yeast condensin pentamer) [µM],also measured
B1,,Kd [1]: 17.7 µM
B2,12.9 ± 2.5,
B3,4 ± 0.3,
B4,,binding result [1]: binds
